Test results as given in the supplement of paper PMC9170038.

Test system: MS2 coat protein
Test: apparent KD of MS2 coat protein; designed switch direction (-1 OFF switch, 1 ON switch): -1; higher = weaker reporter binding
Method in brief: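 An oligonucleotide input, 200 uM small-molecule ligand, or no input was present during titration of SNAP-549-labelled MS2 coat protein, which was doubled from 0.7 or 1.5 nM to 3 µM. Designed RNA switches had been transcribed on Illumina chips by stalled E. coli RNA polymerase. Apparent KD per design is the median over clusters of curves fitted to normalised cluster fluorescence.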

[1] = input ligand: microRNA oligo, concentration not stated
[2] = Eterna round: R95, input ligand: FMN 200 uM
[3] = Eterna round: R95, input ligand: microRNA oligo, concentration not stated
[4] = Eterna round: R95, input ligand: none

Sequence	apparent KD of MS2 coat protein [3]	apparent KD of MS2 coat protein (input ligand: FMN 200 uM)	apparent KD of MS2 coat protein (input ligand: none)	further results
UACAUGAGGAUCACCCAUGUUUUGUCGUGUAUGGUAUUUAUCUAGGAUAUCAAUGUAUUUAUUUAUGAGAAGGAGAAUAUUAAU [JMF's solution 12] (Eterna round: R96, puzzle: Exclusion NG 3)	–	–	–	apparent KD of MS2 coat protein [1]: 0.0296 µM
ACGAAAGCAAACAGGUGAAACAUGAGGAUCACCCAUGUCCUCAUUUGCUCGUCUUAUAAGCUAUGCGAAAGCAUAGC [Mat - Sensor v3 - turn-off var 1 - Eli Mod - D53] (puzzle: Sensor v3, turn-off variant 1)	1.27 µM	–	–	apparent KD of MS2 coat protein [2]: 0.0604 µM; apparent KD of MS2 coat protein [4]: 0.0724 µM
UCUCAACAUGAGGAUCACCCAUGUGAGGAUAUGAUGCAGCAGUGGUCUACGCUGUGCAUCAGAAGGCACAUGUG (puzzle: Exclusion 1)	0.119 µM	–	–	–
UUUAGUUCAGGAUAUGUAGAUUUUAACAUGAGGAUCACCCAUGUAGAUCCUGAAUUAACUACAGAAGGGAACAUUA [Exclusion 5: 2:d] (Eterna round: R96, puzzle: Exclusion 5)	–	0.0811 µM	0.0247 µM	apparent KD of MS2 coat protein [1]: 0.0203 µM
UACAUGAGGAUCACCCAUGUUUUGUCGUGUAUGGUAUUUAUCUAGGAUAUCAUAUUAUUUAGUUAUGAGAAGGAGAAUAUUAAU [JMF's solution 80] (Eterna round: R96, puzzle: Exclusion NG 3)	–	0.0249 µM	0.0193 µM	apparent KD of MS2 coat protein [1]: 0.0127 µM
GUUUCGAGACGGAGAUCCGACAUGAGGAUCACCCAUGUCUCGUAAGCUUUUUGCUCGUCUUAUACUCCUCUGUUCUC [Elimod 49 - Jieux - Sensor, turn-off variant 1] (Eterna round: R97, puzzle: Sensor, turn-off variant 1)	–	0.026 µM	0.0272 µM	–
CAGUACUGAGGAUAUACAUGAGGAUCACCCAUGUGUUCCAGCUAGGAAGCUAGCAAAAGUAGAAGGCAGUACUG [salish99_ex3_r3_073] (puzzle: Exclusion 3)	0.0266 µM	–	–	–
UUUAAUUUUUUUUUUUUACAAGCUUUUUGCUCGUCUUAUACAUGAGGAUCACCCAUGUGGGUAGAAGAUAAAUUAUC [JMF 6] (puzzle: Sensor v3, turn-off variant 2)	0.0818 µM	–	–	apparent KD of MS2 coat protein [2]: 0.0464 µM; apparent KD of MS2 coat protein [4]: 0.0374 µM
AAGUGUGCCUAGGAUAUGUUCGGCCAAGGUCAUACAGAAGGAGGCACAUGAGGAUCACCCAUGUAGUGUCCUAC [Soququis] (puzzle: Exclusion 6)	0.0596 µM	–	–	–
AUAUUGUGAGGAUAUGAACUUAGUUUCGAAAGAUACUAAGUUCAGAAGGCACAUGAGGAUCACCCAUGUUUCUC [Long static hairpin v21] (Eterna round: R97, puzzle: Exclusion 4)	–	0.597 µM	0.0798 µM	–
GUAGAGUCAGGAUAUACAAAUAGAUCGAAAGAUCAAUCCAUACAUGAGGAUCACCCAUGUAGAAGGGACUCUAC [Eli x2 4.15] (Eterna round: R97, puzzle: Exclusion 2)	–	0.0205 µM	0.0167 µM	–
AUCGGACAUGAGGAUCACCCAUGUCAGGAUAUCUGGAACCAUUGGCAGAUGAGGGAAAAGAGAAGGGACAGUGG [EX1 C.3] (Eterna round: R97, puzzle: Exclusion 1)	–	0.0202 µM	0.0185 µM	–
UCGUUCCGUGUAGGAUAUUGGCCUCCCUUGGGCCGAGAAGGACAUGAGGAUCACCCAUGUAUGUUAUUAUCGCGCGUGGCGCAU [Design 88] (Eterna round: R96, puzzle: Exclusion NG 1)	–	0.126 µM	0.0184 µM	apparent KD of MS2 coat protein [1]: 0.0138 µM
UCUGGUCAAGGAUAUACAAUCGUGCUUCGGCACGUAAGAUCACAUGAGGAUCACCCAUGUAGAAGGUGACCAGA [E2/1-C3] (Eterna round: R97, puzzle: Exclusion 2)	–	0.449 µM	0.0439 µM	–
